T1: rEaIRP (iron regulatory protein) (Eisenia andrei, UniProt I1VH49 1-890)
T1 sequence: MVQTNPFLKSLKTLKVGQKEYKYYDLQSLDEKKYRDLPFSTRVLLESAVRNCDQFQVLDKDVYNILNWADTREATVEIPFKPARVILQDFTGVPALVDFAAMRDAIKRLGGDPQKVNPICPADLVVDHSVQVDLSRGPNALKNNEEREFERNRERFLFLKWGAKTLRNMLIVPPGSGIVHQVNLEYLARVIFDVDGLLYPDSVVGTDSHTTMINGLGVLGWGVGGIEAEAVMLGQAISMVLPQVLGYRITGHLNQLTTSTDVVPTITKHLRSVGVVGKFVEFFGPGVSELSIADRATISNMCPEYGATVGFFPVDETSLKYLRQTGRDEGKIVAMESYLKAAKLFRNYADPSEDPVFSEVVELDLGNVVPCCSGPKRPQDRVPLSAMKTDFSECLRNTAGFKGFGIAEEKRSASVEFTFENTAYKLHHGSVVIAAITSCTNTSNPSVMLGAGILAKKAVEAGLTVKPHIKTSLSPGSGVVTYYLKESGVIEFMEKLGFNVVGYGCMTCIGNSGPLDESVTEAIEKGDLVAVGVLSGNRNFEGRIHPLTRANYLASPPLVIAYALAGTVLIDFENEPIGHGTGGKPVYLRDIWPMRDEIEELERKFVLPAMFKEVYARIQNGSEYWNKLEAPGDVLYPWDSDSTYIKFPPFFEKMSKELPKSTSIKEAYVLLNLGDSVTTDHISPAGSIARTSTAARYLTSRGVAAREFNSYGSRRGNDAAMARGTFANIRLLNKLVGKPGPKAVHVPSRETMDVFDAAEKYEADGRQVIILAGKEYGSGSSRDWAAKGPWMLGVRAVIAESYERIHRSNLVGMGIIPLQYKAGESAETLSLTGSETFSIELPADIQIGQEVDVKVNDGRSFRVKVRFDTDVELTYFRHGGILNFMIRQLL


How the values were obtained:
[1] = target: T1, rEaIRP (iron regulatory protein); experiment: EMSA; 6 nM RNA, 50 nM protein, tRNA; reduced by 200-fold unlabeled MAMconsIRE; LightShift RNA EMSA kit binding buffer (composition not given), 5% glycerol, 2 ug tRNA, 20 ul, 30 min room temperature; rEaIRP reduced with 1 mM 2-mercaptoethanol; 6% native PAGE in 0.5X TBE; pH and salt not given; liver extract lanes left out (protein not identified); details: protein: recombinant; tags: N-terminal 6xHis (pRSET B); label: biotin; hairpin with bulged C
[2] = target: T1, rEaIRP (iron regulatory protein); experiment: EMSA; 6 nM RNA, 5-150 nM protein, tRNA; complex visible at 20 nM, distinct at 50 nM; low affinity; competed by unlabeled EAconsIRE; LightShift RNA EMSA kit binding buffer (composition not given), 5% glycerol, 2 ug tRNA, 20 ul, 30 min room temperature; rEaIRP reduced with 1 mM 2-mercaptoethanol; 6% native PAGE in 0.5X TBE; pH and salt not given; liver extract lanes left out (protein not identified); details: protein: recombinant; tags: N-terminal 6xHis (pRSET B); label: biotin; hairpin; optimal fold has unpaired U one nt closer to the loop instead of bulged C

Binder | binding result [1] | binding result [2]
GGGUUUCCUGCUUCAACAGUGCUUGGACGGAACCC (structured_RNA, Bio-11-UTP incorporated in transcription (probe)) [MAMconsIRE] | binds | 
GGGUGCUUUGCUGCGUCAGUGUGCGUGCGAGCUAA (structured_RNA, Bio-11-UTP incorporated in transcription (probe)) [EAconsIRE] |  | binds
